The source of these data is US20160376632A1, “KINASE ACTIVITY DETECTION METHODS” (REGENTS OF THE UNIVERSITY OF MINNESOTA, priority 2014, published 2016).

The target in one data set is Lyn (Homo sapiens, UniProt P07948). Briefly: ELISA-based chemifluorescent detection of substrate phosphorylation, Lyn. In kind it is biochemical. As to conditions: anti-phosphotyrosine 4G10, Amplex Red. The method, then:
(§1) Phosphorylation of SAStide and SFAStide-A were detected using a chemifluorescent ELISA-based assay (Lipchik et al. J Am Chem. Soc 2015, 137, 2484) in which the reaction mixture was quenched using EDTA and incubated in a 96-well neutravidin coated-plate to allow for affinity capture of the biotinylated substrates individually. The total amount of peptide in the quenched reaction mixture applied to each well was 37.5 pmol, which ensured that each well was saturated with peptide (15 pmol binding capacity) for analysis. The captured peptide was then incubated an anti-phosphotyrosine primary antibody (4G10) followed by a horseradish peroxidase-conjugated secondary antibody. Chemifluorescent detection was accomplished by incubating each well with Amplex Red reagent and hydrogen peroxide in phosphate buffer, which gave a fluorescent signal proportional to the amount of horseradish peroxidase-conjugated antibody in each well, and thus reports the degree of phosphotyrosine present.
(§2) The Validation of in vitro specificity of SAStide-Cy5 and 5-FAM-SFAStide-A using ELISA-based chemifluorescence is illustrated in FIG. 14. […] Aliquots were removed at designated time points, quenched with EDTA and alongside the TR-LRET detection as described in FIGS. 3A-F in the main text, the amount of phosphorylated substrate was also measured using ELISA-based detection.
For orientation: An ELISA detects its analyte on a solid surface through an enzyme-linked reagent.

The nature of data set [1]: Determination of LRET distance from Tb3+ luminescence lifetimes. The data set is classed as physicochemical. The conditions noted are these: for Energy Transfer: E from lifetimes; for Ro: Förster distance; for τDA: Tb3+ luminescence lifetime of donor in presence of acceptor fluorophore; for τD: Tb3+ luminescence lifetime of donor without acceptor fluorophore; for R: estimated distance between Tb3+ and fluorophore. An excerpt:
The Tb^3+ luminescence lifetimes of the biosensors in their fluorophore conjugated and unconjugated forms were used to characterize the energy transfer and LRET parameters for each sensor (FIGS. 12A, 12B and 12C). LRET follows the same principles as FRET and can have the same theory applied to calculate the distance between the fluorophore acceptor and the terbium-peptide complex donor pair. The fundamental concept of Förster theory is resonance energy transfer is proportional to
where the percentage of energy transfer, E, can be determined from the lifetime measurements of the donor in the absence of the acceptor (peptide-terbium complex (donor) without the conjugated fluorophore (acceptor)) and the donor in the presence of the acceptor.
R0 the Förster distance is determined for each acceptor/donor pair and d
The luminescence decay rates peptide biosensor-Tb^3+ complexes with and without fluorophore conjugation are illustrated in FIG. 12A pSAStide-AF488:Tb^3+, FIG. 12B pSAStide-Cy5 and FIG. 12C 5-FAM-pSFAStide-A. Data represent the average±SEM of three individual replicates.

A further data set concerns the target T1, Syk (Homo sapiens, UniProt P43405).
T1 construct: EGFP (C)
Briefly: ELISA-based chemifluorescent detection of substrate phosphorylation, Syk. The data set is classed as biochemical. The conditions noted are these: anti-phosphotyrosine 4G10, Amplex Red. How it is done:
as §1, §2

*1 amine or outer side, *2 acyl side, *3 side chain or, on linkers, in order; H or OH if unused. [ ]: non-standard residue; d: D form. The star is where a group is joined. Kb = biotinyl-L-lysine, O=C(CCCC[C@@H]1SC[C@@H]2NC(=O)N[C@@H]21)NCCCC[C@H](N[*:1])C(=O)[*:2]; 5FAM = O=C1OC2(c3ccc(O)cc3Oc3cc(O)ccc32)c2ccc(C(=O)*)cc21; Ahx = NCCCCCC(=O)O

Chain of Lyn (P07948 whole entry, species assumed): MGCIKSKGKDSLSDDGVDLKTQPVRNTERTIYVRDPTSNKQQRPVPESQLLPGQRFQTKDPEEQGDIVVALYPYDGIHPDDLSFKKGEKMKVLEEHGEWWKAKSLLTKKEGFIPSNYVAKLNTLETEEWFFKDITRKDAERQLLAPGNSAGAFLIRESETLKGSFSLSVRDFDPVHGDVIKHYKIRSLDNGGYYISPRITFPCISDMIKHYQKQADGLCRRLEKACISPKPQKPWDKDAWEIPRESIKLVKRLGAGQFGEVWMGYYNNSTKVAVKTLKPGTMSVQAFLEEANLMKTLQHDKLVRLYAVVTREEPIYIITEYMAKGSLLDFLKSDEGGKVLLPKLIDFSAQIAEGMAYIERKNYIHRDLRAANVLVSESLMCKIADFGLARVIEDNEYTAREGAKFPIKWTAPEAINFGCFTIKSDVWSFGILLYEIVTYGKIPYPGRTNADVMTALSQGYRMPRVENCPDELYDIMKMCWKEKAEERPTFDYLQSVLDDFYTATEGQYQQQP

On to “5-FAM-Ahx-GGEEDEDIYEELDEPGGKbGG ({5FAM-Ahx}-GGEEDEDIYEELDEPGG[Kb]GG-NH2) [5-FAM-SFAStide-A, Src-family kinase peptide biosensor labelled with 5-carboxyfluorescein]”, for which the “phosphorylation of the substrate by Lyn in vitro” value with Lyn was “phosphorylated”. Also, in data set [1], the J is recorded as 9.62 × 10^14 M^−1 cm^−1 nm^4, the “Quantum Yield” value is given as 0.21, the “Energy Transfer” value was 0.89 and the Ro is recorded as 56.0 Å. In data set [1], the τDA is 0.071 ms, the τD was 0.64 ms and the R is given as 39.5 Å.

For the substance GGDEEDYEEPDEPGGCCy5GG [SAStide-Cy5], in data set [1], the J is 5.4 × 10^13 M^−1 cm^−1 nm^4, the “Quantum Yield” value is 0.34, the “Energy Transfer” value stood at 0.88 and the Ro is 55.1 Å. In data set [1], the τDA was found to be 0.088 ms, the τD turned out to be 0.72 ms and the R is listed as 39.5 Å. The “phosphorylation of the substrate by Syk in vitro” value at Syk is recorded as “phosphorylated”.
